Experiment [1] concerns 5-FU-induced neutropenic male BDF1 mice. Briefly: monotherapy and combination therapy on neutrophil recovery in 5-FU-induced neutropenic mice (Example 5). It is filed as in vivo, mouse. Conditions: monotherapy; 5-FU 150 mg/kg i.v. Day 0; VTP 194310 3 mg/kg/day oral Days 2 to 4; PEG-G-CSF 10 μg/kg s.c. Day 5, 6, or 7. Here is the method: VTP194310 DMSO Stock solution was made by weighing out VTP194310 and dissolving it in DMSO (25 mg/1.33 ml DMSO).
The Vehicle solution was made by mixing 39.2 ml Corn Oil+0.8 ml DMSO.
The 3.0 mg/kg VTP194310 solution was made by mixing 39.2 ml Corn Oil+0.8 ml VTP 194310 DMSO Stock solution.
The 150 mg/kg 5-FU solution was made by weighing out 187.5 mg 5-FU and mixing it with 10 g saline.
The 10 μg/kg PEG-G-CSF solution was made by diluting 6 mg/ml stock with PBS.
Male BDF1 mice (C57Bl×DBA2), 9 weeks old, DOB: 26 Jun. 2006) were used in this experiment.
Each group of mice were treated with 150 mg/kg 5-FU intravenously on Day 0, vehicle or VTP194310 orally by gavage at 3 mg/kg/day on Days 2 to 4, and/or subcutaneously with PEG-G-CSF at 10 μg/kg on Days 5, 6, or 7 according to the regimens listed in the table. The mean numbers of total white blood cells (WBC), neutrophils, lymphocytes, red blood cells (RBC) and platelets and standard error (SE) of data obtained for each treated group are shown in FIG. 6.

For experiment [2], the system named is CPM-induced neutropenic male BDF1 mice. Description: mono-therapy and combination therapy on neutrophil recovery in CPM-induced neutropenic mice (Example 4). The experiment is classed as in vivo, mouse. The settings on record: monotherapy; CPM 150 mg/kg Day 0; VTP 194310 1 or 3 mg/kg/day oral Days −1 to 1; PEG-G-CSF 1 or 10 μg/kg s.c. Day 2. Here is the method:
VTP 194310 DMSO stock solution was made by weighing out VTP 194310 and dissolved in DMSO (25 mg/1.33 ml DMSO). This stock solution was then mixed with Vehicle (39.2 ml Corn Oil+0.8 ml DMSO).
The 3.0 mg/kg VTP194310 solution was made by mixing 39.2 ml Corn Oil+0.8 ml VTP 194310 DMSO Stock.
The 1.0 mg/kg VTP194310 solution was made by diluting the VTP194310 DMSO Stock 1:3 with DMSO (e.g. 1 ml DMSO+0.5 ml 4310 Stock), and then combining 39.2 ml Corn Oil+0.8 ml of the diluted VTP194310 Stock.
The 1 and 10 μg/kg PEG-G-CSF solutions were made by diluting 6 mg/ml stock with PBS.
Male BDF1 mice (C57Bl×DBA2), 7-8 weeks old, DOB: 1 Jun. 2006) were used in this experiment.
35 μl of blood (via the submandibular vein) were collected according to the scheduled time points or until the full recovery of blood cells and platelets. The blood samples were analyzed after 1:5 dilution with PBS saline containing 2% BSA (Fraction V) and 0.2 mM EDTA on the Hematology Analyzer Cell-DYN 3700 (Abbott Diagnostics).
Each group of mice were treated with vehicle, VTP 194310 at 3 mg/kg, PEG-G-CSF at 1 or 10 μg/kg, and CPM at 150 mg/kg. The mean numbers of total white blood cells (WBC), neutrophils, lymphocytes, red blood cells (RBC) and platelets and standard error (SE) for data obtained for each treated group are shown in FIG. 4. […] Combination treatment with VTP 194310 and PEG-G-CSF further increased recovery.

Experiment [3] has as its system CPM-induced leukopenic male BDF1 mice. Briefly: cyclophosphamide-induced mouse model of leukopenia, blood cell recovery (Example 1). The experiment is classed as in vivo. The settings on record: 10 μg/kg s.c. at day 2. The text has this:
Mice purchased from Charles River Laboratories (Wilmington, Mass.) were housed individually in micro-isolater cages in a 12-hour light/dark cycle. They were housed under pathogen-free conditions, and received a normal standard diet and water ad libitum. They were acclimated for one week at the Association for Assessment and Accreditation of Laboratory Animal Care (AAALAC) accredited animal facility (Allergan Inc., Irvine, Calif.) prior to experiments. Study designs were approved by the Institutional Animal Care and Use Committee. Body weights were monitored throughout each study. Weight of the mice was in the range of 22-27 g at the day of treatment initiation. The mice were healthy, not previously used in other experimental procedures.
Leukopenia was induced in male BDF1 mice (C57Bl×DBA2, 7.5-12 weeks) by an intra-peritoneal (i.p.) injection of 200 mg/kg Cyclophosphamide (CPM, Sigma-Aldrich, Saint Louis, Mo.) in 0.2 ml saline. The effect of VTP 194310 on leukocyte recovery was evaluated by oral gavage of animals with 1 mg/kg of VTP 194310 as indicated in the results section. VTP 194310 (dissolved in DMSO) was diluted through peanut oil as the vehicle (dosed at 5 ml/kg). Control mice were given DMSO and vehicle alone. As a positive control, granulocytopoiesis was stimulated in CPM-treated mice by a single sub-cutaneous injection of 10 μg/kg pegylated recombinant methionyl human granulocyte colony-stimulating factor (PEG-r-metHuG-CSF) (Neulasta, Pegfilgrastim; Amgen, Thousand Oaks, Calif.) on day 2. Three separate experiments were performed.
Peripheral blood (60 μl) was collected under anaesthesia from the retroorbital sinus of the mice with heparinized capillary tubes and transferred to EDTA-coated microtainer tubes (Becton Dickinson, Franklin Lakes, N.J.). White cell, neutrophil, and lymphocyte counts were obtained for at least three mice per group by diluting the blood 1:4 with PBS containing 5% bovine serum albumin (Fraction V; Sigma, Saint Louis, Mo.), and by using an Advia 120 Hematology System (Bayer HealthCare Diagnostics Division, Tarrytown, N.Y.).

B1: PEG-G-CSF: pegylated recombinant methionyl human granulocyte colony-stimulating factor (Neulasta, Pegfilgrastim; Amgen) (protein, chains of the INN, looked up)
chain: TPLGPASSLPQSFLLKCLEQVRKIQGDGAALQEKLCATYKLCHPEELVLLGHSLGIPWAPLSSCPSQALQLAGCLSQLHSGLFLYQGLLQALEGISPELGPTLDTLQLDVADFATTIWQQMEELGMAPALQPTQGAMPAFASAFQRRAGGVLVASHLQSFLEVSYRVLRHLAQP
modifications: N-terminal Met; PEG
Turning to B1, the “recovery of neutrophils relative to control” value in experiment [1] is “little effect”. Also, the “neutrophil recovery relative to control” value in experiment [2] is listed as “enhanced neutrophil recovery”. In experiment [3], the “blood neutrophil level at day 8” value is recorded as “declined by day 8 to numbers that were observed in the control group”, the “day of peak blood neutrophil level” value is 7 days and the “number of blood neutrophils” value is reported as “sharp rise”.

These data come from US9271946B2, “Use of a RAR antagonist or inverse agonist for the treatment of chemotherapy and/or radiation therapy side effects” (IO Therapeutics, Inc., priority 2006, dated 2016).
